The values below come from article PMC10441475, “Structure of METTL3-METTL14 with an m6A nucleotide reveals insights into m6A conversion and sensing”.

Data set [1] has as its target T1, METTL3 WT;METTL14 WT (Homo sapiens;Homo sapiens, UniProt Q86U44;Q9HCE5 1-580;1-456, |). The data set can be described thus: SPR; 1:1 model; FP: 10 mM HEPES pH 7.5, 50 mM KCl, 5 nM RNA; SPR: 10 mM HEPES pH 7.5, 150 mM KCl, 0.05% P20, 25 C; 2-Ap: 50 mM Tris pH 8.0, 10 mM MgCl2, 0.5 uM RNA, read at 37. The following applies: protein: recombinant;recombinant, tags: His-tag removed by TEV;, copies: 1;1. In general terms: Surface plasmon resonance follows binding to a sensor surface in real time, without labels.

The target in a further data set is METTL3 WT;METTL14 R298P (Homo sapiens;Homo sapiens, UniProt Q86U44;Q9HCE5 1-580;1-456, |R298P). The data set can be described thus: SPR; two-state model; FP: 10 mM HEPES pH 7.5, 50 mM KCl, 5 nM RNA; SPR: 10 mM HEPES pH 7.5, 150 mM KCl, 0.05% P20, 25 C; 2-Ap: 50 mM Tris pH 8.0, 10 mM MgCl2, 0.5 uM RNA, read at 37. Particulars: protein: recombinant;recombinant, tags: His-tag removed by TEV;, copies: 1;1.
METTL3 WT;METTL14 R298P, sequence (Q86U44 whole entry, chain 1 of 2): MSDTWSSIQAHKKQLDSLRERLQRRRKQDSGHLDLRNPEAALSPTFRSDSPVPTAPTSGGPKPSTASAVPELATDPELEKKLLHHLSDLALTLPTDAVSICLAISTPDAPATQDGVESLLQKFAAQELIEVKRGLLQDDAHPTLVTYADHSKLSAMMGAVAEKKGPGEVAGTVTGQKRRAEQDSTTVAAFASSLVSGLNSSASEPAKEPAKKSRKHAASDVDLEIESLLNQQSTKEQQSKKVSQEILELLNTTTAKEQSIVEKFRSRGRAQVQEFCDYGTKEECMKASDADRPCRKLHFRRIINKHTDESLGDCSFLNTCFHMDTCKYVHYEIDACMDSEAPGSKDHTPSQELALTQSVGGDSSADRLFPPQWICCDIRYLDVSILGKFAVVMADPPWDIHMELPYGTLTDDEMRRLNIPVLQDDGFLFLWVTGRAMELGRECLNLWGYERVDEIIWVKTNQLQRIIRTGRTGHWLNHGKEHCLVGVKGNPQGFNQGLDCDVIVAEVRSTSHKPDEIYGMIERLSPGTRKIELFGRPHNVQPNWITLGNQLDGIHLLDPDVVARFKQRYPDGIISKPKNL
METTL3 WT;METTL14 R298P, sequence (Q9HCE5 whole entry R298P, chain 2 of 2): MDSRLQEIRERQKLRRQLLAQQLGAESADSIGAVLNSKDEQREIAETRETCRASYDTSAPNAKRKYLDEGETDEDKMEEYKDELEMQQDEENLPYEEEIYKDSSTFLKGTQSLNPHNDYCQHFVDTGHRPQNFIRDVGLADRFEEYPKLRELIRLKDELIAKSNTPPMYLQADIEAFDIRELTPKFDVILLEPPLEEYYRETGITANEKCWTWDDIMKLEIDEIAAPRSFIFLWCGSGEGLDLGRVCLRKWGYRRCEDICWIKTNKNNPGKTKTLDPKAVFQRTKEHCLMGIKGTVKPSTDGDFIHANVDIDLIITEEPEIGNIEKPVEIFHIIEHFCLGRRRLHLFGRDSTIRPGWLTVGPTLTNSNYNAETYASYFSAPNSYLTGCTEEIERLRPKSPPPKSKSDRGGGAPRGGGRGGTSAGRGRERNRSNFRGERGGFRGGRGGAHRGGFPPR

The next data set addresses METTL3 R471H;METTL14 WT (Homo sapiens;Homo sapiens, UniProt Q86U44;Q9HCE5 1-580;1-456, R471H|). The description is as above. The following applies: protein: recombinant;recombinant, tags: His-tag removed by TEV;, copies: 1;1.
For data set [2], the target named is T1, METTL3 WT;METTL14 WT. The data set can be described thus: fluorescence polarization; range given for A-RNA and m6A-RNA together; m6A-RNA said to bind more tightly; FP: 10 mM HEPES pH 7.5, 50 mM KCl, 5 nM RNA; SPR: 10 mM HEPES pH 7.5, 150 mM KCl, 0.05% P20, 25 C; 2-Ap: 50 mM Tris pH 8.0, 10 mM MgCl2, 0.5 uM RNA, read at 37. The following applies: protein: recombinant;recombinant; tags: His-tag removed by TEV;; copies: 1;1; label: 5' fluorescein; predicted bulged stem-loop.

Data set [3] deals with T1, METTL3 WT;METTL14 WT. Nature of the data set: fluorescence polarization; range given for A-RNA and m6A-RNA together; FP: 10 mM HEPES pH 7.5, 50 mM KCl, 5 nM RNA; SPR: 10 mM HEPES pH 7.5, 150 mM KCl, 0.05% P20, 25 C; 2-Ap: 50 mM Tris pH 8.0, 10 mM MgCl2, 0.5 uM RNA, read at 37. Particulars: protein: recombinant;recombinant; tags: His-tag removed by TEV;; copies: 1;1; label: 5' fluorescein; predicted bulged stem-loop.

T1 sequence (Q86U44 whole entry, chain 1 of 2): as the sequence (Q86U44 whole entry, chain 1 of 2) above
T1 sequence (Q9HCE5 whole entry, chain 2 of 2): as the sequence (Q9HCE5 whole entry R298P, chain 2 of 2) above, with P298R counted along it
METTL3 R471H;METTL14 WT, sequence (Q86U44 whole entry R471H, chain 1 of 2): as the sequence (Q86U44 whole entry, chain 1 of 2) above, with R471H counted along it
METTL3 R471H;METTL14 WT, sequence (Q9HCE5 whole entry, chain 2 of 2): as the sequence (Q9HCE5 whole entry R298P, chain 2 of 2) above, with P298R counted along it

In general, Kd refers to the equilibrium constant for the complex coming apart. Consider GCCUAGUAGCAGAGAGGACUGCUCCUUGGU (structured_RNA, m6A at position 18) [rNEAT2-m6A (biotinyl)], for which the results for the Kd with METTL3 WT;METTL14 WT [1] (bulged stem-loop), in the data set with METTL3 WT;METTL14 R298P (bulged stem-loop) and with METTL3 R471H;METTL14 WT (bulged stem-loop) were 337 nM, 538 nM and 62.8 nM, respectively.

Consider GCCUAGUAGCAGAGAGGACUGCUCCUUGGU (structured_RNA, m6A at position 18) [Fl-NEAT2*-m6A (m6A-RNA)], for which the Kd with METTL3 WT;METTL14 WT [2] was around 13.4 nM.

Regarding CUUCGGACUCUGCU (ssRNA, m6A at position 7) [r6T-m6A (biotinyl)], the figures for the Kd with METTL3 WT;METTL14 WT [1] (linear single strand), in the data set with METTL3 WT;METTL14 R298P (linear single strand) and with METTL3 R471H;METTL14 WT (linear single strand) were 3120 nM, 22900 nM and 171 nM, respectively.

For the molecule CUUCGGACUCUGCU (ssRNA) [r6T (biotinyl)], the figures for the Kd in the data set with METTL3 WT;METTL14 WT [1] (linear single strand), in the data set with METTL3 WT;METTL14 R298P (linear single strand) and with METTL3 R471H;METTL14 WT (linear single strand) were 1360 nM, 2160 nM and 108 nM, respectively.

With GCCUAGUAGCAGAGAGGACUGCUCCUUGGU (structured_RNA) [rNEAT2 (biotinyl)], the values for the Kd with METTL3 WT;METTL14 WT [1] (bulged stem-loop), in the data set with METTL3 WT;METTL14 R298P (bulged stem-loop) and in the data set with METTL3 R471H;METTL14 WT (bulged stem-loop) were 256 nM, 356 nM and 58.8 nM, respectively.

Turning to GCCUAGUAGCAGAGAGGACUGCUCCUUGGU (structured_RNA) [Fl-NEAT2* (A-RNA)], the Kd with METTL3 WT;METTL14 WT [3] was around 13.4 nM.
